# B1: ZNF511 (parent)
# chain: EPLPVERDPAAGAAPFRFVARPVR
# Variants of: B1
# Experiment: protein stability index of a GFP-peptide fusion (GPS, HEK-293T) (PSI 1-6); higher = more stable
# Conditions: c terminus: a fixed tail appended
# 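Note: lentivirally expressed fusions sorted by FACS into six bins by GFP to DsRed ratio, PSI derived from sequencing read proportions per bin multiplied by bin number.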
row,Variant,protein stability index
1,EPLPVEVDPAAGAAPFRFVARPVR [R7V],2.42
2,EPLPVESDPAAGAAPFRFVARPVR [R7S],2.34
3,EPLPVEKDPAAGAAPFRFVARPVR [R7K],2.12
4,EPLPVEFDPAAGAAPFRFVARPVR [R7F],2.1
5,EPLPVEMDPAAGAAPFRFVARPVR [R7M],2.09
6,EPLPVEIDPAAGAAPFRFVARPVR [R7I],2.91
7,EPLPVEQDPAAGAAPFRFVARPVR [R7Q],2.65
8,EPLPPERDPAAGAAPFRFVARPVR [V5P],2
9,EPLPFERDPAAGAAPFRFVARPVR [V5F],2.12
10,EPLPSERDPAAGAAPFRFVARPVR [V5S],2.56
11,EPLPQERDPAAGAAPFRFVARPVR [V5Q],2.37
12,EPLPEERDPAAGAAPFRFVARPVR [V5E],2.17
13,EPLPDERDPAAGAAPFRFVARPVR [V5D],2.54
14,EPLPHERDPAAGAAPFRFVARPVR [V5H],1.96
15,EPLPVERDPAAGQAPFRFVARPVR [A13Q],2.6
16,EPLPVERDPAAGNAPFRFVARPVR [A13N],2.58
17,EPLPVERDPAAGMAPFRFVARPVR [A13M],3.42
18,EPLPVERDPAAGGAPFRFVARPVR [A13G],2.48
19,EPLPVERDPAAGYAPFRFVARPVR [A13Y],2.02
20,EPLPVERDPAAGTAPFRFVARPVR [A13T],2.5
21,EPLPVERDPAAGDAPFRFVARPVR [A13D],3.26
22,EPLPVERDPAAGAAPFRFVAWPVR [R21W],1.41
23,EPLPVERDPAAGAAPFRFVAQPVR [R21Q],2.96
24,EPLPVERDPAAGAAPFRFVALPVR [R21L],2.07

row,Variant,protein stability index
1,EPLPVERDPAAGAAPFRFVAKPVR [R21K],2.71
2,EPLPVERDPAAGAAPFRFVACPVR [R21C],1.7
3,EPLPVERDPAAGAAPFRFVATPVR [R21T],2.57
4,EPLPVERDPAAGAAPFRFVAIPVR [R21I],2.58
5,EPLPVERDPAAGAAPFRFVASPVR [R21S],2.14
6,EPLPVERDPAAGAAPFRFVADPVR [R21D],2.27
7,IPLPVERDPAAGAAPFRFVARPVR [E1I],2.12
8,RPLPVERDPAAGAAPFRFVARPVR [E1R],2.39
9,HPLPVERDPAAGAAPFRFVARPVR [E1H],2.2
10,TPLPVERDPAAGAAPFRFVARPVR [E1T],2.44
11,SPLPVERDPAAGAAPFRFVARPVR [E1S],2.13
12,KPLPVERDPAAGAAPFRFVARPVR [E1K],2.06
13,DPLPVERDPAAGAAPFRFVARPVR [E1D],2.73
14,QPLPVERDPAAGAAPFRFVARPVR [E1Q],2.9
15,YPLPVERDPAAGAAPFRFVARPVR [E1Y],1.77
16,EPLPVERDPAADAAPFRFVARPVR [G12D],2.65
17,EPLPVERDPAAAAAPFRFVARPVR [G12A],2.06
18,EPLPVERDPAAHAAPFRFVARPVR [G12H],2.64
19,EPLPVERDPAATAAPFRFVARPVR [G12T],1.64
20,EPLPVERDPAAVAAPFRFVARPVR [G12V],1.92
21,EPLPVERDPAAKAAPFRFVARPVR [G12K],2.52
22,EPLPVERDPAAWAAPFRFVARPVR [G12W],1.67
23,EPLPVERDPAAEAAPFRFVARPVR [G12E],2.09
24,EPLPVERDPAAPAAPFRFVARPVR [G12P],1.76

row,Variant,protein stability index
1,EPLPVERDPAAGAAPFRTVARPVR [F18T],4.86
2,EPLPVERDPAAGAAPFRPVARPVR [F18P],5.01
3,EPLPVERDPAAGAAPFRKVARPVR [F18K],4.87
4,EPLPVERDPAAGAAPFRMVARPVR [F18M],4.6
5,EPLPVERDPAAGAAPFRRVARPVR [F18R],4.91
6,EPLPVERDPAAGAAPFRIVARPVR [F18I],4.71
7,EPLPVERDPAAGAAPFRSVARPVR [F18S],5.18
8,EPLPVERDPAAGAAPFLFVARPVR [R17L],3.64
9,EPLPVERDPAAGAAPFHFVARPVR [R17H],4.17
10,EPLPVERDPAAGAAPFNFVARPVR [R17N],3.45
11,EPLPVERDPAAGAAPFDFVARPVR [R17D],4.13
12,EPLPVERDPAAGAAPFCFVARPVR [R17C],3.88
13,EPLPVERDPAAGAAPFPFVARPVR [R17P],4.88
14,EPLPVERDPAAGAAPFVFVARPVR [R17V],4.21
15,EPLPVERDPAAGAAPNRFVARPVR [F16N],4.86
16,EPLPVERDPAAGAAPRRFVARPVR [F16R],5.16
17,EPLPVERDPAAGAAPHRFVARPVR [F16H],4.75
18,EPLPVERDPAAGAAPERFVARPVR [F16E],5.25
19,EPYPVERDPAAGAAPFRFVARPVR [L3Y],2.26
20,EPIPVERDPAAGAAPFRFVARPVR [L3I],2.45
21,EPVPVERDPAAGAAPFRFVARPVR [L3V],2.23
22,EPLPVERDPAAGAAPFRFVARNVR [P22N],2.31
23,EPLPVERDPAAGAAPFRFVAREVR [P22E],2.62
24,EPLPVERDPAAGAAPFRFVARFVR [P22F],3.22

row,Variant,protein stability index
1,EPLPVERDPAAGAAPFRFVARWVR [P22W],2.66
2,EPLPVERDPAAGAAPFRFVARHVR [P22H],1.93
3,EPLPVERDPAAGAAPFRFVARSVR [P22S],2.51
4,EPLPVERDPAAGAAPFRFVARMVR [P22M],2.48
5,EPLPVERDPARGAAPFRFVARPVR [A11R],1.78
6,EPLPVERDPAEGAAPFRFVARPVR [A11E],3
7,EPLPVERDPAFGAAPFRFVARPVR [A11F],2.02
8,EPLPVERDPAQGAAPFRFVARPVR [A11Q],2.12
9,EPLPVERDPALGAAPFRFVARPVR [A11L],1.86
10,EPLPVERDPAMGAAPFRFVARPVR [A11M],1.71
11,EPLPVERDPANGAAPFRFVARPVR [A11N],1.75
12,EPLPVERDPAAGAAPFRFVKRPVR [A20K],1.97
13,EPLPVERDPAAGAAPFRFVWRPVR [A20W],2.56
14,EPLPVERDPAAGAAPFRFVTRPVR [A20T],2.8
15,EPLPVERDPAAGAAPFRFVRRPVR [A20R],1.67
16,EPLPVERDPAAGAAPFRFVLRPVR [A20L],3.35
17,EPLPVERDPAAGAAPFRFVPRPVR [A20P],2.2
18,EPLPVERDPAAGAAPFRFVQRPVR [A20Q],2.4
19,EPLPVERDPAAGAAPFRFVGRPVR [A20G],2.04
20,EPLPVERDPAAGAAPFRFVIRPVR [A20I],3.21
21,EPLPVERDPAAGAAPFRFVYRPVR [A20Y],4.17
22,EPLPVERDPAAGAAPFRFVDRPVR [A20D],2.46
